Starred links: 1 amine or outer side, 2 acyl side, 3 side chain; linkers in the order of their positions; H or OH if unused. No end group written: not given here. NH(CH2)3(OCH2CH2)2O(CH2)3NH = C(CN[*:1])COCCOCCOCCCN[*:2]
What was measured:
[1] = target: T1, NLpoly WT; test: BRET wavelength scan, NLpoly WT lysate + peptide
T1 construct: also called WT NLpoly
T1 chain: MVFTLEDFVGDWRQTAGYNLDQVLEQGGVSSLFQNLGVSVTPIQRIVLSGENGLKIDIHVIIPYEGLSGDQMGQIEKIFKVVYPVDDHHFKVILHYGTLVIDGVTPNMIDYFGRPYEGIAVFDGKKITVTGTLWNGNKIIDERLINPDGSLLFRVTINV

[2] = target: T2, NLpoly11S; test: spectral scan of luminescence, purified NLpoly11S + peptide
T2 construct: Non-luminescent polypeptide (engineered large fragment of NanoLuc); Used as E. coli clarified lysate or as purified protein; also called 11S (12 - A51T); LSP 11S
T2 chain: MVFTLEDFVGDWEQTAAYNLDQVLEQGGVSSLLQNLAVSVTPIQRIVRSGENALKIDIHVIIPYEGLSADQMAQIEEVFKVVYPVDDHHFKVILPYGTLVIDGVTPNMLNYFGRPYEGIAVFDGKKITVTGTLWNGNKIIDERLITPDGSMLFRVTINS

[3] = target: T2, NLpoly11S; test: luminescence of purified NLpoly11S in NanoGlo with peptide
[4] = target: T2, NLpoly11S; test: luminescence complementation titration on purified NLPoly11S, 1 site specific binding fit
[5] = target: T2, NLpoly11S; test: luminescence complementation titration, one-site specific binding fit
[6] = target: T2, NLpoly11S; test: luminescence complementation titration at several furimazine concentrations, 1-site fit
[7] = target: T1, NLpoly WT; test: luminescence complementation titration (E. coli lysate NLpoly, synthetic NLpep), one site-specific binding fit

B1: PBI-4877 (peptide)
peptide: GVTGWRLCERILA-{NH(CH2)3(OCH2CH2)2O(CH2)3NH-6‑tetramethylrhodamine}
notes: also called NLpep1-TMR; NLPep1-fluorophore
B1: binds [1]; binds [2].

B2: GWALFKK (peptide)
peptide: GWALFKK
notes: Dark peptide; also called NLpep162 (w/o Met)
B2: binds [3].

B3: Dabcyl-GWALFKK (peptide)
peptide: GWALFKK
modifications: not fully specified (N-terminus); printed as Dabcyl-GWALFKK
notes: Quencher peptide
B3: binds [3].

B4: NLpep114 (peptide)
peptide: VTGYRLFEEIL
notes: Synthetic; also called NLpep114 (w/o Met)
B4: binds [4].

B5: array2.52 (peptide)
peptide: Ac-VTGYRLFEEIL-NH2
Work on B5 yielded a Kd [5] of 104 µM.

B6: NLpep1 (peptide)
peptide: GVTGWRLCERILA
notes: also called NLpepWT; NLPep1 (WT)
In the case of B6, the binding result [6] is reported as “binds” and the Kd [7] is reported as ~10 µM.

— patent publication US20200292534A1 (PROMEGA, published 2020)
